Results on 5 molecules are retold here after US20240009240A1 (published 2024).

For experiment [1], the target named is T1, EGFR L858R peptide on HLA-A*11:01 (human).
T1 peptide: KITDFGRAK
Description: multimer staining.

The target in experiment [2] is … (SEQ ID NO:71) presented on HLA-A*1101 on HLA-A*1101-transduced 293 target cells (human). Kind of experiment: cell-based or functional assay.
Experiment [3] concerns the target T1, EGFR L858R peptide on HLA-A*11:01. Description: killing.

B1: EGFRA11 TCRA11-7-8 (TCR, V domains shown)
Valpha: RKEVEQDPGPFNVPEGATVAFNCTYSNSASQSFFWYRQDCRKEPKLLMSVYSSGNEDGRFTAQLNRASQYISLLIRDSKLSDSATYLCVVIGGGADGLTFGKGTHLIIQP
Vbeta: GVIQSPRHEVTEMGQEVTLRCKPISGHDYLFWYRQTMMRGLELLIYFNNNVPIDDSGMPEDRFSAKMPNASFSTLKIQPSEPRDSAVYFCASRNGPEAFFGQGTRLTVV
For the molecule B1, the binding result in experiment [1] was “recognises”.

B2: EGFRA11 TCRA11-7-18 (TCR, V domains shown)
Valpha: RKEVEQDPGPFNVPEGATVAFNCTYSNSASQSFFWYRQDCRKEPKLLMSVYSSGNEDGRFTAQLNRASQYISLLIRDSKLSDSATYLCVVIGGGADGLTFGKGTHLIIQP
Vbeta: EPEVTQTPSHQVTQMGQEVILRCVPISNHLYFYWYRQILGQKVEFLVSFYNNEISEKSEIFDDQFSVERPDGSNFTLKIRSTKLEDSAMYFCASSGQGDLLYGYTFGSGTRLTVV
Regarding B2, the binding result in experiment [1] is given as “recognises”.

B3: EGFRA11 TCRA11-7-12 (TCR, V domains shown)
Valpha: RKEVEQDPGPFNVPEGATVAFNCTYSNSASQSFFWYRQDCRKEPKLLMSVYSSGNEDGRFTAQLNRASQYISLLIRDSKLSDSATYLCVVIGGGADGLTFGKGTHLIIQP
Vbeta: GVTQSPTHLIKTRGQQVTLRCSSQSGHNTVSWYQQALGQGPQFIFQYYREEENGRGNFPPRFSGLQFPNYSSELNVNALELDDSALYLCASSVGGDTEAFFGQGTRLTVV
Regarding B3, the binding result in experiment [1] is reported as “recognises”.

B4: #1. EGFRA11 TCRA11-6; TRAV14DV4*02 J8*01/TRBV12-4*01 C1 J1-1*01 (TCR)
TCR alpha: QKITQTQPGMFVQEKEAVTLDCTYDTSDQSYGLFWYKQPSSGEMIFLIYQGSYDEQNATEGRYSLNFQKARKSANLVISASQLGDSAMYFCAMNTGFQKLVFGTGTRLLVSPNIQNPDPAVYQLRDSKSSDKSVCLFTDFDSQTNVSQSKDSDVYITDNAVLDMRSMDFKSNSAVAWSNKSDFACANAFNNSIIPEDTFFPSPESSCDVKLVEKSFETDTNLNFQNLSVIGFRILLLKVAGFNLLMTLRLWSSRAKRSGSGATNFSLLKQAGDVEENPGP
TCR beta: GVIQSPRHEVTEMGQEVTLRCKPISGHDYLFWYRQTMMRGLELLIYFNNNVPIDDSGMPEDRFSAKMPNASFSTLKIQPSEPRDSAVYFCASRNGPEAFFGQGTRLTVVEDLNKVFPPEVAVFEPSEAEISHTQKATLVCLATGFFPDHVELSWWVNGKEVHSGVCTDPQPLKEQPALNDSRYCLSSRLRVSATFWQNPRNHFRCQVQFYGLSENDEWTQDRAKPVTQIVSAEAWGRADCGFTSVSYQQGVLSATILYEILLGKATLYAVLVSALVLMAMVKRKDF
For B4, the specific lysis of 293A11 cells pulsed with different amounts of EGFR-A11 peptide, T cells expressing TCR6 construct at a 20:1 ratio (Cr51 release) in experiment [2] amounted to 20 ng/mL.

B5: EGFRA11 TCRA11-6 (TCR, V domains shown)
Valpha: QKITQTQPGMFVQEKEAVTLDCTYDTSDQSYGLFWYKQPSSGEMIFLIYQGSYDEQNATEGRYSLNFQKARKSANLVISASQLGDSAMYFCAMNTGFQKLVFGTGTRLLVSP
Vbeta: DAGVIQSPRHEVTEMGQEVTLRCKPISGHDYLFWYRQTMMRGLELLIYFNNNVPIDDSGMPEDRFSAKMPNASFSTLKIQPSEPRDSAVYFCASRNGPEAFFGQGTRLTVV
B5: the binding result in experiment [3] is reported as “recognises”.
